Experimental data from article PMC5586342, “Mouse glutamate carboxypeptidase II (GCPII) has a similar enzyme activity and inhibition profile but a different tissue distribution to human GCPII” (FEBS Open Bio, 2017).
Where two headings read alike, the source gives them in different places.

Tests used:
[1] = target: T1, Avi-mGCPII (recombinant extracellular mouse GCPII) (Mus musculus, UniProt O35409); experiment: HPLC assay of pteroyl-di-L-glutamate cleavage; type: biochemical; conditions: for Ki: read-out: K i (Avi-mGCPII)
T1 construct: gene Folh1; extracellular domain (45-752), N-terminal biotinylated Avi-tag with TEV site, secreted from Drosophila S2 cells, streptavidin mutein purification
From the text: HPLC assay of pteroyl-di-L-glutamate cleavage on Avi-mGCPII (recombinant extracellular mouse GCPII)

[2] = target: T2, Avi-hGCPII (recombinant extracellular human GCPII) (Homo sapiens, UniProt Q04609); experiment: HPLC assay of pteroyl-di-L-glutamate cleavage; type: biochemical; conditions: for Ki: read-out: K i (Avi-hGCPII)
T2 construct: gene FOLH1
T2 sequence (Q04609 44-750 limits assumed): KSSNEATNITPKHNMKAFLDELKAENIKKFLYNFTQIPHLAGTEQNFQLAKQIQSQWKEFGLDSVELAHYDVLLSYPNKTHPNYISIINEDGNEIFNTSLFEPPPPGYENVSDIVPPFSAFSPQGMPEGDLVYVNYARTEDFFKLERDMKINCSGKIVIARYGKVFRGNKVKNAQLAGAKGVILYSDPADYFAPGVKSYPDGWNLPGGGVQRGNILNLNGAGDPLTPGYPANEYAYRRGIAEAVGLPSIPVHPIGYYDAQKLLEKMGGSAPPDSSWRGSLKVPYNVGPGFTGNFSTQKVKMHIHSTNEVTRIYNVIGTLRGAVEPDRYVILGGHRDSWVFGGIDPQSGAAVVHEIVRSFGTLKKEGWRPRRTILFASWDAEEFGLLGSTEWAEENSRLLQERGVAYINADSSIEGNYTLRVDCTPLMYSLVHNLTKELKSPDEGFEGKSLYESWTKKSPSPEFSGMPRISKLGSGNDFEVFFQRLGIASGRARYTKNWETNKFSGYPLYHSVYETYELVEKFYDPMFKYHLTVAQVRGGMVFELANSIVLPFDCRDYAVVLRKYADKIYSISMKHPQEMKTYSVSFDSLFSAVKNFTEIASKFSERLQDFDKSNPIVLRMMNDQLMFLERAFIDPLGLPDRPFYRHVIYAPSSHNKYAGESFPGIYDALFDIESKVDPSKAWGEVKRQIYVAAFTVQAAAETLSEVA
From the text: HPLC assay of pteroyl-di-L-glutamate cleavage on Avi-hGCPII (recombinant extracellular human GCPII)

[3] = tested on: CC(=O)N[C@@H](CC(=O)O)C(=O)N[C@@H](CCC(=O)O)C(=O)O; experiment: radioenzymatic assay; type: biochemical, Homo sapiens; conditions: […] Bis-Tris propane, […] NaCl, pH […]
From the text: radioenzymatic assay on Avi-hGCPII (recombinant extracellular human GCPII)

HPLC assay = substrate: Nc1nc2ncc(CNc3ccc(C(=O)N[C@@H](CCC(=O)N[C@@H](CCC(=O)O)C(=O)O)C(=O)O)cc3)nc2c(=O)[nH]1; experiment: HPLC assay; type: biochemical, Mus musculus; conditions: […] Bis-Tris propane, […] NaCl, pH […]
From the text: HPLC assay on Avi-mGCPII (recombinant extracellular mouse GCPII)

radioenzymatic assay = substrate: CC(=O)N[C@@H](CC(=O)O)C(=O)N[C@@H](CCC(=O)O)C(=O)O; experiment: radioenzymatic assay; type: biochemical, Mus musculus; conditions: […] Bis-Tris propane, […] NaCl, pH […]
From the text: radioenzymatic assay on Avi-mGCPII (recombinant extracellular mouse GCPII)

[4] = substrate pteroyl-di-L-glutamate ([…] final), […] Bis-Tris propane, […] NaCl, pH […] °C

With `O=C(O)CCC(CP(=O)(O)O)C(=O)O` (centres unmarked) [2-PMPA, 2‐(phosphonomethyl)pentanedioic acid] the Ki [1, 4] was 0.56 ± 0.05 nM.

`O=C(O)CCc1ccc(O)c(CN(CCN(CC(=O)O)Cc2cc(CCC(=O)NCCCCCC(=O)NCCCC[C@H](NC(=O)N[C@@H](CCC(=O)O)C(=O)O)C(=O)O)ccc2O)CC(=O)O)c1` [DKFZ-PSMA-11] showed a Ki [2, 4] of 0.018 ± 0.002 nM and a Ki [1] of 0.1 ± 0.01 nM.

For `N[C@@H](Cn1oc(=O)[nH]c1=O)C(=O)O` [Quisqualate], the Ki [2] was 520 ± 80 nM and the Ki [1] was 580 ± 60 nM.

Molecule `CC(C)C[C@H](NC(=O)N[C@@H](CCC(=O)O)C(=O)O)C(=O)O` [ZJ-43, (S)‐2‐(3‐((S)‐1‐carboxy‐3‐methylbutyl)ureido)pentanedioic acid] has a Ki [1] of 5.9 ± 0.9 nM.

In the case of `O=C(O)CC[C@H](NC(=O)C(O)(CC(=O)O)CC(=O)O)C(=O)O` [β-citryl-L-glutamate], the “K i (Avi-hGCPII) (nM)” value [2, 4] is reported as 16 000 ± 5000 nM and the “K i (Avi-mGCPII) (nM)” value [1, 4] is reported as 24 000 ± 3000 nM.

“Avi-hGCPII (recombinant extracellular human GCPII) (Homo sapiens)” was tested, and the Km [3] was 550 ± 60 nM, the kcat [3] was 1.45 ± 0.04 s⁻¹ and the kcat/Km [3] was 2.65e+06 ± 70000 M⁻¹ s⁻¹.

B1: Avi-mGCPII (recombinant extracellular mouse GCPII) (Mus musculus) (protein)
chain: KPSNEATGNVSHSGMKKEFLHELKAENIKKFLYNFTRTPHLAGTQNNFELAKQIHDQWKEFGLDLVELSHYDVLLSYPNKTHPNYISIINEDGNEIFKTSLSEQPPPGYENISDVVPPYSAFSPQGTPEGDLVYVNYARTEDFFKLEREMKISCSGKIVIARYGKVFRGNMVKNAQLAGAKGMILYSDPADYFVPAVKSYPDGWNLPGGGVQRGNVLNLNGAGDPLTPGYPANEHAYRHELTNAVGLPSIPVHPIGYDDAQKLLEHMGGPAPPDSSWKGGLKVPYNVGPGFAGNFSTQKVKMHIHSYTKVTRIYNVIGTLKGALEPDRYVILGGHRDAWVFGGIDPQSGAAVVHEIVRSFGTLKKKGRRPRRTILFASWDAEEFGLLGSTEWAEEHSRLLQERGVAYINADSSIEGNYTLRVDCTPLMYSLVYNLTKELQSPDEGFEGKSLYDSWKEKSPSPEFIGMPRISKLGSGNDFEVFFQRLGIASGRARYTKNWKTNKVSSYPLYHSVYETYELVVKFYDPTFKYHLTVAQVRGAMVFELANSIVLPFDCQSYAVALKKYADTIYNISMKHPQEMKAYMISFDSLFSAVNNFTDVASKFNQRLQELDKSNPILLRIMNDQLMYLERAFIDPLGLPGRPFYRHIIYAPSSHNKYAGESFPGIYDALFDISSKVNASKAWNEVKRQISIATFTVQAAAETLREVA
notes: extracellular domain (45-752), N-terminal biotinylated Avi-tag with TEV site, secreted from Drosophila S2 cells, streptavidin mutein purification
B1 was tested, and the Km (HPLC assay) was 290 ± 20 nM, the kcat (HPLC assay) was 3.63 ± 0.09 s⁻¹ and the kcat/Km (HPLC assay) was 1.26e+07 ± 800000 M⁻¹ s⁻¹. For the same molecule, the Km (radioenzymatic assay) was 1900 ± 100 nM, the kcat (radioenzymatic assay) was 1.44 ± 0.02 s⁻¹ and the kcat/Km (radioenzymatic assay) was 770000 ± 10000 M⁻¹ s⁻¹.
